Paper PMC4306681
One block for each substance: values may come before it.

Key:
[1] = molecular target: sialidase C-treated Fc-tagged WT perlecan DII; experiment: pull-down; Fc-tagged proteins on protein-A agarose incubated with human LDL (10 μg in Fig. 1E/F with 500 ng protein; 1.5 μg in Fig. 5D); 20 mM HEPES pH 6.0, 10 mM NaCl, 1% BSA, room temperature 1 h; blot with anti-LDL or anti-ApoB antibody
[2] = molecular target: Fc-tagged secreted perlecan DII (sDII), as purified in Fig. 1D; experiment: in vitro saturation binding analysis; sDII 10.0 pM with increasing LDL (supplementary Fig. 1); further conditions not shown
[3] = molecular target: Fc-tagged perlecan DI from WT CHO cells (UniProt P98160); experiment: radioligand binding; stable WT CHO cell lines expressing Fc or Fc-tagged proteins, binding of [I^125]labeled LDL (supplementary Fig. 3)
[4] = molecular target: Fc-tagged WT perlecan DII from WT CHO cells (UniProt P98160); experiment: as above
[5] = molecular target: Fc-tagged perlecan DI+II from WT CHO cells (UniProt P98160); experiment: as above
[6] = molecular target: Fc-tagged WT perlecan DII from WT CHO cells (UniProt P98160); experiment: pull-down; Fc-tagged proteins on protein-A agarose incubated with human ApoB-100 (5 μg); 20 mM HEPES pH 6.0, 10 mM NaCl, 1% BSA ('optimal binding condition'), room temperature 1 h; blot with anti-ApoB antibody, quantified from three experiments
[7] = molecular target: Fc-tagged perlecan DI+II from WT CHO cells (UniProt P98160); experiment: as above

Sequence of human ApoB-100 (P04114 28-4563): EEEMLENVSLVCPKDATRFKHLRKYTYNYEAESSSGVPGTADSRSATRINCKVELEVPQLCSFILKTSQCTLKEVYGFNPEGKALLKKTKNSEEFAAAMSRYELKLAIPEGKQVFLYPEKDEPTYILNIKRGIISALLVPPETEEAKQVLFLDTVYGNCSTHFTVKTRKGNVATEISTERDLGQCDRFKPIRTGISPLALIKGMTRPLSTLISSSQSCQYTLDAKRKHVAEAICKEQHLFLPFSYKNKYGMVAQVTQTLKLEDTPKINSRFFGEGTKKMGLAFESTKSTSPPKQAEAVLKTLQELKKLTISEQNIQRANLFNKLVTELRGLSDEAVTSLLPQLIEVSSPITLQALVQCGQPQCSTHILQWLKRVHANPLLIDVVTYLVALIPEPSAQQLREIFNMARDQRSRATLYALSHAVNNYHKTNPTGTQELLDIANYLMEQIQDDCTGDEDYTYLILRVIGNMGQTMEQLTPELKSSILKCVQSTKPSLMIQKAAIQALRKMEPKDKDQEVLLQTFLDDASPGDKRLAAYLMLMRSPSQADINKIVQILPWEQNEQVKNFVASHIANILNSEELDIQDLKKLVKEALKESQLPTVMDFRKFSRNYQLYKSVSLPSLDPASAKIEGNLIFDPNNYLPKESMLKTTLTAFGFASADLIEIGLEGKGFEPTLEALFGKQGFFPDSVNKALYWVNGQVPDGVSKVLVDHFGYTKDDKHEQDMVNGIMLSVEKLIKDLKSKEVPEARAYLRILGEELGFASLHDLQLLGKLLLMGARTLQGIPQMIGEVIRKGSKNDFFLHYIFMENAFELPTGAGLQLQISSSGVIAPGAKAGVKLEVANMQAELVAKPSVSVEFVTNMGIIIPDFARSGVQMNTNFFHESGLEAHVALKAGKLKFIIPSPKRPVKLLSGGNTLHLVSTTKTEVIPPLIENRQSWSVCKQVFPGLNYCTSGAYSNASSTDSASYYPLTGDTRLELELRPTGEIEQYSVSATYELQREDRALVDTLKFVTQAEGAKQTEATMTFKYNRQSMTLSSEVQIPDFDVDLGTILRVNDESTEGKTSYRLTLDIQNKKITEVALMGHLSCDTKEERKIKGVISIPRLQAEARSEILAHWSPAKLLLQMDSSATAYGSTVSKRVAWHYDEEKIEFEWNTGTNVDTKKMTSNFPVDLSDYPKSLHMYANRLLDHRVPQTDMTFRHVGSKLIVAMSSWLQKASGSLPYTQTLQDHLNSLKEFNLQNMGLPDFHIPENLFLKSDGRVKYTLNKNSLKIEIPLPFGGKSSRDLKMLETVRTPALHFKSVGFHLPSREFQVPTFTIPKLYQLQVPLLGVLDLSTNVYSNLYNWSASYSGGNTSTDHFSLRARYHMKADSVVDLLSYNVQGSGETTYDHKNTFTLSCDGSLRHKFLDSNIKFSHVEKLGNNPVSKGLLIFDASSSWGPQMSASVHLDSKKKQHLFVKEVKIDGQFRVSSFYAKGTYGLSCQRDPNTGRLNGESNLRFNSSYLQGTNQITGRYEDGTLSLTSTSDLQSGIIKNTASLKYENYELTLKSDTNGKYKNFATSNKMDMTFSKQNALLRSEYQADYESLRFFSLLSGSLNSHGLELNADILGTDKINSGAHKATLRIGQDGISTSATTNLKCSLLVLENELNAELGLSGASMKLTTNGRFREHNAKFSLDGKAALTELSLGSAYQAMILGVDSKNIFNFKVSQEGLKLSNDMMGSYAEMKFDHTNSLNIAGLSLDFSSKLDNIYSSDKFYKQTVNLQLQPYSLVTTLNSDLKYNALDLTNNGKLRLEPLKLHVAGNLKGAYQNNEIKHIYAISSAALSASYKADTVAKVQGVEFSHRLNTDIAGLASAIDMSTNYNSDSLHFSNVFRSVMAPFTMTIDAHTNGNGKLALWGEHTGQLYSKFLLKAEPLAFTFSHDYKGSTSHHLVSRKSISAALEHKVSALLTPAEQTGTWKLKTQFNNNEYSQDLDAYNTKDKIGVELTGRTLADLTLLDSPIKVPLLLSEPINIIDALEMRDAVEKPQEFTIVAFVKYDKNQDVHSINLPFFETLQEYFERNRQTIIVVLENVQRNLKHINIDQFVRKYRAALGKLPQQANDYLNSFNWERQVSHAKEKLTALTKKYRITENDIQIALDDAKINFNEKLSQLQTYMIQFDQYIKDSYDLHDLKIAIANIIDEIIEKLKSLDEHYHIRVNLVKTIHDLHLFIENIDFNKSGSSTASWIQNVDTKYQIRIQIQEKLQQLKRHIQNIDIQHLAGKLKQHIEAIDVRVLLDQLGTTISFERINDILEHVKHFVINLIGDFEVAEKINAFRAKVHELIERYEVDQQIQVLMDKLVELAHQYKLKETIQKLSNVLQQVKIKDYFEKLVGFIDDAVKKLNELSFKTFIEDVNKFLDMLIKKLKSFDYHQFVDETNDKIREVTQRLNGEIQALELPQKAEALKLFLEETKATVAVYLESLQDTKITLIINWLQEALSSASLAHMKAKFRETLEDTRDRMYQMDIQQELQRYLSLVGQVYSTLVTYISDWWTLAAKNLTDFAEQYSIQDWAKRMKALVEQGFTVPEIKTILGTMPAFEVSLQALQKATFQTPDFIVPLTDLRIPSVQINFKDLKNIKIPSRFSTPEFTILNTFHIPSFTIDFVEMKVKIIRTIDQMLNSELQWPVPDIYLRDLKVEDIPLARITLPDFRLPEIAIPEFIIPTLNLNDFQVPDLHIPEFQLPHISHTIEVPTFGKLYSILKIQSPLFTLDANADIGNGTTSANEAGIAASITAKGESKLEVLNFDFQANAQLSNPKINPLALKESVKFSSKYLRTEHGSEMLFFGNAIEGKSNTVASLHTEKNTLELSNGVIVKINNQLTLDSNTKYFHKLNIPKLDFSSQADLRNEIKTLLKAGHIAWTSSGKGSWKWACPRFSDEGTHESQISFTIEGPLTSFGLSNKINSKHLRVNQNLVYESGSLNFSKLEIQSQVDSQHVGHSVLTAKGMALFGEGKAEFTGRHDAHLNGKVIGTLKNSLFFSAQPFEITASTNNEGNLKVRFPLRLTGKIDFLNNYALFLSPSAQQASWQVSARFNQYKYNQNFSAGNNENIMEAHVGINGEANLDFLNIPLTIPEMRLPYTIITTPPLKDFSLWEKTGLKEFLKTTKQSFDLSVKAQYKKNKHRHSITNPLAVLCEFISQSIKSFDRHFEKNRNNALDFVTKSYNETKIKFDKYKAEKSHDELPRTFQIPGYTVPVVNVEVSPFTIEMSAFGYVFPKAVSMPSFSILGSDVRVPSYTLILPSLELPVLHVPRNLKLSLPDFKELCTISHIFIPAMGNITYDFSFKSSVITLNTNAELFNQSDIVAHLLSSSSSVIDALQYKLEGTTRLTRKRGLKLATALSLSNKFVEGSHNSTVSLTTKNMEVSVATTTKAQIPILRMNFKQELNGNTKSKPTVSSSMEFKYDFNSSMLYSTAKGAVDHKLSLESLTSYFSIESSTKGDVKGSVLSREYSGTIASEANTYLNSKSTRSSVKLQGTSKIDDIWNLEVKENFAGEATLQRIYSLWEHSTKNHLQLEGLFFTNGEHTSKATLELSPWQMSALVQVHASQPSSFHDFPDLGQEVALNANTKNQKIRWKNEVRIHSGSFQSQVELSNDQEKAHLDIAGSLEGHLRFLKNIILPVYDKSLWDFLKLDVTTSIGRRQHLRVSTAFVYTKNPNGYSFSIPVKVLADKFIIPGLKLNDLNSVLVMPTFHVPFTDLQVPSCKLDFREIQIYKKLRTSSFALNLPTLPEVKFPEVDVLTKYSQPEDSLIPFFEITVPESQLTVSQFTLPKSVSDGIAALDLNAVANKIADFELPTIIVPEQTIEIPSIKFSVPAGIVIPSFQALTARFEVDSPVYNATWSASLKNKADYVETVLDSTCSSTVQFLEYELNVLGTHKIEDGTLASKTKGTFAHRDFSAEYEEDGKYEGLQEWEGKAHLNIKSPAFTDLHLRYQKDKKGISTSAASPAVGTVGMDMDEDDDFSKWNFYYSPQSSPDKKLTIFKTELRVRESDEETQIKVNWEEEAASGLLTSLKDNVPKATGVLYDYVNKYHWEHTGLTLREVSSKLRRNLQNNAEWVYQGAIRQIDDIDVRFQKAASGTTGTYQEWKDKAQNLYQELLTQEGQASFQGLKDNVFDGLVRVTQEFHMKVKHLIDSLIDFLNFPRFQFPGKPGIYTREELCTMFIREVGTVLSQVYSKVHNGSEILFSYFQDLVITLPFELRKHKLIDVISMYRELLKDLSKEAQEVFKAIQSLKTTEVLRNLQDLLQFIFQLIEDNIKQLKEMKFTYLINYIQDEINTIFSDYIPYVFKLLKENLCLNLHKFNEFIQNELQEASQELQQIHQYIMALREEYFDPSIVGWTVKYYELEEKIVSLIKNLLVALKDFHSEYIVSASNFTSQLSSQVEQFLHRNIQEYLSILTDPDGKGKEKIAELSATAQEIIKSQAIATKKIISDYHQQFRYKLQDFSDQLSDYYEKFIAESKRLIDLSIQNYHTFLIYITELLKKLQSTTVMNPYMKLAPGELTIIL

- percent reduction of binding against mock-treated WT DII [1]: 50%
- LDL concentration at which binding to sDII (10.0 pM) became saturated [2]: 16.3 pM
Substance: human LDL (complex)

- percent increase of [I^125]LDL binding to cells [3]: 26%
- percent increase of [I^125]LDL binding to cells [4]: 31%
- percent increase of [I^125]LDL binding to cells [5]: 43%
Substance: [I^125]labeled LDL (complex)

- percent increase of binding over WT DI [6]: 24%
- percent increase of binding over DI alone [7]: 90%
- percent increase of binding over WT DII [7]: 53%
Substance: human ApoB-100 (from UniProt P04114 28-4563) (natural protein)
